Consider 4 molecules from publication PMC6105031, “The crystal structure of KSHV ORF57 reveals dimeric active sites important for protein stability and function” (PLoS Pathogens, 2018).

Series [1] addresses GFP-tagged full-length ORF57 with all three disrupted nuclear localization signals (ORF57 mt1+2+3) (UniProt Q2HR75). The series is described as follows: nuclear translocation assay (fluorescence microscopy of cotransfected cells).
Series [2] concerns the molecule itself. The series is described as follows: crystal structure; spindle-shaped crystal, sitting-drop vapor diffusion at 4°C, 0.1 M BIS-TRIS propane pH 7.0, 0.8 M lithium sulfate; space group P6(4)22, two molecules in the asymmetric unit, 3.5 Å.
[3] abbreviates: COS-1 cells, 50 double-color positive cells counted, parent: 88.

In series [1] (n=50), “FLAG-tagged full-length ORF57 (from UniProt Q2HR75) C333S; H423L; C427S; C432S” yielded an other: % cells with nuclear translocation of 0%.

Take “FLAG-tagged full-length ORF57 (from UniProt Q2HR75) R325A; R327A”: the other: % cells with nuclear translocation in series [1] (setting [3]) amounted to 4%.

With “FLAG-tagged full-length ORF57 (from UniProt Q2HR75) W292P”, the other: % cells with nuclear translocation in series [1] (setting [3]) amounted to 0%.

B1: C-terminal domain (CTD) of KSHV ORF57 (residues 167 to 455) (domain or fragment)
chain: GVSDAVKKLRLPASMIIDGESPRFDDSIIPRHHGACFNVFIPAPPSHVPEVFTDRDITALIRAGGKDDELINKKISAKKIDHLHRQMLSFVTSRHNQAYWVSCRRETAAAGGLQTLGAFVEEQMTWAQTVVRHGGWFDEKDIDIILDTAIFVCNAFVTRFRLLHLSCVFDKQSELALIKQVAYLVAMGNRLVEACNLLGEVKLNFRGGLLLAFVLTIPGMQSRRSISARGQELFRTLLEYYRPGDVMGLLNVIVMEHHSLCRNSECAAATRAAMGSAKFNKGLFFYPLS
notes: KSHV ORF57 (MTA), residues 167 to 455, GenBank ABD28908.1; Crystallised as a dimer (spindle-shaped crystal) and as a monomer (cubic crystal, 4.0 M LiCl); also called ORF57-CTD; source: E. coli BL21 (DE3), purified (Ni-NTA, ULP1 digestion, Superdex 75); not shown: His6, N-terminal, cleaved; SUMO (Smt3 of Saccharomyces cerevisiae), N-terminal, cleaved
B1: the “stoichiometry N” value in series [2] is 2.
